Consider two substances from publication PMC9430671.

As usually defined, the stoichiometry N is the number of molecules, sites or subunits per partner or assembly.

In experiment [1] the target is LysP7951_(209-310) (Streptococcus thermophilus phage P7951). In words: SEC; analytical gel filtration (Superose 6 10/300 GL, calibrated) of single purified preparations; protein buffer (50 mM HEPES, 500 mM NaCl, 1% glycerol, pH 7), 0.4 mL/min; apparent molecular masses from elution volumes.
Experiment [2] shares this target. In words: SAXS; LysP7951 CTP at 1.00, 1.85, 2.70 mg/mL in protein buffer, 20°C, BM29 beamline ESRF; molecular mass estimated from the scattering data.
Experiment [3] addresses LysP7951 full-length product (FLP), produced from the wild-type lysP7951 gene (Streptococcus thermophilus phage P7951). In words: native MS; purified LysP7951 complex (co-produced, co-purified) in 150 mM ammonium acetate, about 10 μM, nano-ESI Q-TOF, positive mode, collision energy 0 V (15 and 100 V for dissociation).
The target is the same in experiment [4]. In words: SEC; analytical gel filtration (Superose 6 10/300 GL, calibrated) of single purified preparations; protein buffer (50 mM HEPES, 500 mM NaCl, 1% glycerol, pH 7), 0.4 mL/min; apparent molecular masses from elution volumes. (SEC sorts molecules by how far they enter the pores of the column.)

On to LysP7951_(209-310) (domain or fragment), for which the stoichiometry N was 7 subunits in experiment [1] and 6 to 7 subunits in experiment [2].
For the substance “LysP7951 C-terminal product (CTP), produced from the internal translation start site of the wild-type lysP7951 gene (domain or fragment)”, the stoichiometry N (CTP subunits per FLP) in experiment [3] turned out to be 5; in experiment [4], 4.
